# Measured values taken from patent US5767250, “Complexes comprising truncated CMV gH polypeptides and escort proteins” (Chiron Corporation, dated 1998).
# B1: EC-FGF receptor, soluble extracellular domain of the human FGF receptor flg5 expressed in a baculovirus system (receptor)
# chain: RPSPTLPEQAQPWGAPVEVESFLVHPGDLLQLRCRLRDDVQSINWLRDGVQLAESNRTRITGEEVEVQDSVPADSGLYACVTSSPSGSDTTYFSVNVSDALPSSEDDDDDDDSSSEEKETDNTKPNPVAPYWTSPEKMEKKLHAVPAAKTVKFKCPSSGTPNPTLRWLKNGKEFKPDHRIGGYKVRYATWSIIMDSVVPSDKGNYTCIVENEYGSINHTYQLDVVERSPHRPILQAGLPANKTVALGSNVEFMCKVYSDPQPHIQWLKHIEVNGSKIGPDNLPYVQILKTAGVNTTDKEMEVLHLRNVSFEDAGEYTCLAGNSIGLSHHSAWLTVLEALEERPAVMTSPLYLE
# Target: basic FGF (human, UniProt P09038, radioiodinated (125I) in the soluble binding assay and the radioreceptor assay)
# Test: soluble binding assay: EC-FGF receptor on concanavalin A coated wells, 125I-bFGF with increasing bFGF, Scatchard analysis
binder,measurement,value
B1,Kd,< 5 nM
